The values below come from PMC2850574 (Biochemistry, 2010).

Ends that are not written are not given here.

The target in assay [1] is IAEDANS-labeled SecAΔ11-Cys-190 (E. coli) (UniProt P10408).
The target of a further assay is SecA-Cys-256 (Escherichia coli, UniProt P10408, C885S/C887S/C896S/C98S/T256C). Description: Signal peptide binding to SecA-Cys-256 by fluorescence anisotropy. A general note: In fluorescence polarisation assays a small probe gives low polarisation when free and higher when bound to something large.
The target of a further assay is SecAΔ11-Cys-190 (Escherichia coli, UniProt P10408, C885S/C887S/C896S/C98S/N190C). Description: Binding of SP22 to monomeric SecAΔ11-Cys-190 by FRET titration.
The next assay relates to SecA-Cys-190. The assay can be described thus: Specificity control: scrambled SP22 binding/FRET. Set-up: species or system Escherichia coli. The settings on record: 7 μM IAEDANS-labeled SecA-Cys-190, 18 μM IANBD-labeled scrambled SP22; data not shown.
Assay [2] deals with LamB signal peptide signal peptide (Escherichia coli) (UniProt P02943). As to conditions: cited from earlier work.
In assay [3] the target is IANBD-labeled alkaline phosphatase signal peptide SP22 (E. coli). The assay can be described thus: fluorescence polarisation.
For assay [4], the target named is T1, wild-type SecA (Escherichia coli SecA ATPase) (E. coli, UniProt P10408 9-836). The assay can be described thus: fluorescence polarisation.
The target of assay [5] is T1, wild-type SecA (Escherichia coli SecA …). Description: fluorescence polarisation. This is another data set of the same source.

In assay [1], “IAEDANS-labeled SecAΔ11-Cys-190 (from UniProt P10408 9-836) (natural protein)” registered a Kd of 230 nM.

For the molecule MKQSTIALALLPLLFTPVTKAC-NH2 [SP22], the values for the Kd at SecA-Cys-256 and at SecAΔ11-Cys-190 were 1100 ± 200 nM and 3060 ± 1130 nM, respectively.

Regarding “PLMDTEITLKFLSPLQALKTVC-NH2 [scrambled SP22]”, the “high-affinity binding and FRET” value with SecA-Cys-190 was “neither high-affinity binding nor FRET was detected”.

With SecA (from UniProt P10408), the Kd in assay [2] is 100000 nM.

In assay [3], “SecA-Cys-256 (unlabeled) (from UniProt P10408 9-836) (natural protein)” returned a Kd of 1100 nM.

B1: IANBD-labeled alkaline phosphatase signal peptide SP22 (peptide)
chain: MKQSTIALALLPLLFTPVTKAC(IANBD)-NH2
For B1, binding in assay [4] was characterised by a dissociation constant (Kd) of 1400 ± 200 nM. Moreover, the “stoichiometry N” value in assay [5] was 1 mole ratio of signal peptide to SecA.

One may read the Kd as the free concentration of one partner at which half of the binding sites on the other are occupied at equilibrium, for simple one-to-one binding.
